Test results from patent US20090325867A1, “RECEPTOR-SPECIFIC TUMOUR NECROSIS FACTOR-RELATED APOPTOSIS-INDUCING LIGAND (TRAIL) VARIANTS” (MEDICAL RESEARCH COUNCIL, priority 2005, published 2009).

Key:
Ramos cells [1] = assay: Apoptosis by phosphatidylserine (PS) externalization in Ramos cells; format: cell-based; settings: for ability to induce apoptosis in Ramos cells (in words): PS externalization, compared with wt TRAIL
Procedure: (§1) Cells were also exposed to HGS-ETR1 or HGSETR2 (1 μg ml^−1). C: Ramos or Jurkat cells were pre-incubated for 30 min either alone or with TRAIL-R1 blocking Ab or TRAIL-R2 neutralizing Ab (5 μg ml^−1). […] D: Ramos and Jurkat cells were exposed to wt TRAIL or TRAIL mutants as described above and processing of caspase-3 and -8 determined by Western blot analysis. The asterisk indicates a non-specific band. The lower panel of the blot for detection of the caspase-8 p18 subunit was exposed for twice as long as the upper panel. Apoptosis was assessed by phosphatidylserine externalization and results expressed as the Means±SEM of at least 3 separate determinations.
Ramos, an Epstein-Barr virus-negative Burkitt's lymphoma cell line, and Jurkat T cells (clone E6-1) were cultured as described (MacFarlane et al (2005 Cell Death and Differentiation vol 12 pages 773-782)). Blood samples were obtained from CLL patients, with patient consent and local ethical committee approval and CLL cells purified as described (MacFarlane et al (2002 Oncogene 21, 6809-6818). Cells were incubated for 16 h with depsipeptide (10 nM), provided by Dr. E. Sausville (NCI, USA). Cells were then cultured for a further 6 h with either HGSETR1 or HGS-ETR2, agonistic mAbs to TRAIL-R1 or -R2, respectively (Human Genome Sciences, Rockville, Md.), His-TRAIL-LE (a recombinant TRAIL with low endotoxin—Alexis Corporation, Nottingham, UK), His-TRAIL, a similar form of human recombinant TRAIL (MacFarlane et al (1997 J Biol Chem 272, 25417-25420)) but not further purified to reduce endotoxin levels or a mutant form of His-TRAIL as described (MacFarlane et al., 2005 ibid.). Cell lines were also pre-incubated for 30 min with a TRAIL-R1 blocking Ab and a TRAIL-R2 neutralizing Ab from Alexis and R&D systems, respectively, prior to exposure to TRAIL. Freshly isolated cells from patients with MCL were isolated, purified and incubated with different forms of TRAIL as described above for CLL cells. Samples were either analyzed immediately for apoptosis or stored at −80° C. for subsequent Western blotting. Other methods and reagents were as described (Inoue (2004 Cell Death Differ 11 Suppl 2, S193-206); MacFarlane et al., 2005 ibid).
(§2) Apoptosis was quantified by phosphatidylserine (PS) externalization in the presence of propidium iodide as described (MacFarlane et al., 2002 ibid.). Samples for Western blot analysis were prepared and caspase processing detected as described (Inoue et al., 2004 ibid.; MacFarlane et al., 2005 ibid.).
Ramos and Jurkat T cells (clone E6-1) were cultured as described (MacFarlane et al, 2005 ibid.). The breast tumour cell line, MCF-7 (clone F43) was cultured as described previously (MacFarlane et al., 2000 J. Cell Biol. 148, 1239-1254). Cells were cultured for either 4 h (Ramos and Jurkat) or 6 h (MCF-7) with His-TRAIL (MacFarlane et al, 1997 J Biol Chem 272, 25417-25420), HGS-ETR1 or HGS-ETR2 (Human Genome Sciences), or a mutant form of His-TRAIL (MacFarlane et al, 2005 ibid.). Samples were analyzed for apoptosis, Western blotting, or TRAIL DISC activation as described (MacFarlane et al, 2005 ibid.; MacFarlane et al. 2002 Oncogene 21, 6809-6818). Mutants of His-TRAIL (residues 95-281) were generated using the Quik-Change site-directed mutagenesis kit (Stratagene, Calif.), confirmed by DNA sequencing, expressed in E. coli and purified as described (MacFarlane et al, 1997 ibid.). For siRNA targeting of TRAIL-R1/-R2, MCF-7 cells were seeded into six-well plates immediately prior to effectene-mediated RNAi transfection with either a negative control siRNA (30 nM, Ambion, #4611), or preannealed siRNA oligonucleotides for TRAIL-R1 or TRAIL-R2 (30 nM, Ambion), with the sequence and validity described (Ren et al, 2004 Mol. Biol. Cell vol 15 pp 5064-5074). After 40 h of transfection the cells were collected and total TRAIL-R1 or TRAIL-R2 levels assessed. […]

primary MCL cells = assay: Apoptosis in freshly isolated primary MCL cells with or without depsipeptide pre-treatment; format: cell-based, human; settings: pre-treatment 16 h with depsipeptide (5 nM), depsipeptide alone 35.4±5%
Procedure: Cell lines were also pre-incubated for 30 min with a TRAIL-R1 blocking Ab and a TRAIL-R2 neutralizing Ab from Alexis and R&D systems, respectively, prior to exposure to TRAIL. Freshly isolated cells from patients with MCL were isolated, purified and incubated with different forms of TRAIL as described above for CLL cells. Samples were either analyzed immediately for apoptosis or stored at −80° C. for subsequent Western blotting. Other methods and reagents were as described (Inoue (2004 Cell Death Differ 11 Suppl 2, S193-206); MacFarlane et al., 2005 ibid).
as §2
We also obtained three samples from patients with mantle cell lymphoma (MCL), an incurable and aggressive disease that accounts for ˜6% of all non-Hodgkin's lymphoma. There are no standard treatments for MCL and the prognosis is very poor particularly for the blastoid variant. MCL cells were isolated and exposed to the different forms of TRAIL after pre-treatment for 16 h with depsipeptide (5 nM).

Ramos cells [2] = assay: Caspase-8 and -3 processing by Western blot in Ramos cells; format: cell-based; settings: FIG. 1D
Procedure: as §1, §2
(§3) To confirm that the mutants were inducing apoptosis, we examined their effects on the processing of caspase-8, the apical caspase in death receptor-induced apoptosis and caspase-3, an effector caspase.

Jurkat cells = assay: Caspase-8 and -3 processing by Western blot in Jurkat cells; format: cell-based; settings: FIG. 1D
Procedure: as §1, §2, §3

B1: TRAIL.R1-5: 6His TRAIL 95-281 with 193Ser, 199Val, 201Arg, 213Trp and 215Asp (protein)
chain: TSEETISTVQEKQQNISPLVRERGPQRVAAHITGTRGRSNTLSSPNSKNEKALGRKINSWESSRSGHSFLSNLHLRNGELVIHEKGFYYIYSQTYFRFSEEIKEVTRNDKQMVQYIYKWTDYPDPILLMKSARNSCWSKDAEYGLYSIYQGGIFELKENDRIFVSVTNEHLIDMDHEASFFGAFLVG
modifications: biotin (site not stated) in the DISC analysis only; not biotinylated in the apoptosis assays
notes: 6His TRAIL 95-281 with 193Ser, 199Val, 201Arg, 213Trp and 215Asp
B1 was tested, and the “inhibition of ligand-induced apoptosis by receptor blocking antibodies” value (Ramos cells [1]; 30 min pre-incubation with TRAIL-R1 blocking Ab or TRAIL-R2 neutralizing Ab (5 μg ml^−1)) was “blocking antibody specific to TRAIL-R1 but not to TRAIL-R2 to inhibit apoptosis”, the “concentration-response of apoptosis compared with wt TRAIL” value (Ramos cells [1]; 4 h, FIG. 1B) was “very similar concentration-response to wt TRAIL” and the “% PS+ cells, Ramos” value (Ramos cells [1]; 4 h exposure, 500 ng ml^−, Mean ± SEM of at least three determinations) was 35.9 ± 6.4%. The “ability to induce apoptosis in Ramos cells (in words)” value (Ramos cells [1]) was “retained most of the activity of wt TRAIL”, the “apoptosis, ligand or antibody after depsipeptide pre-treatment” value (primary MCL cells) was 54.3±9.1% and the “processing of caspase-8 and caspase-3” value (Ramos cells [2]) was “induced the processing”. For the same molecule, the “processing of caspases-8 and -3” value (Jurkat cells) was “small amount of caspase processing”.

B2: HGS-ETR2 (antibody, INN chains, looked up, V domains shown)
VH: EVQLVQSGGGVERPGGSLRLSCAASGFTFDDYGMSWVRQAPGKGLEWVSGINWNGGSTGYADSVKGRVTISRDNAKNSLYLQMNSLRAEDTAVYYCAKILGAGRGWYFDLWGKGTTVTVSS
VL: SSELTQDPAVSVALGQTVRITCQGDSLRSYYASWYQQKPGQAPVLVIYGKNNRPSGIPDRFSGSSSGNTASLTITGAQAEDEADYYCNSRDSSGNHVVFGGGTKLTVL
In the case of B2, the “ability to induce apoptosis in Ramos cells (in words)” value (Ramos cells [1]) is reported as “not in Ramos cells”, the “apoptosis, ligand or antibody after depsipeptide pre-treatment” value (primary MCL cells) is reported as 38.3±4.3% and the “processing of caspase-8 and caspase-3” value (Ramos cells [2]) is reported as “not”. The “processing of caspases-8 and -3” value (Jurkat cells) was “most potent”.
